Measured values reported in patent US20220145339A1, “METHOD FOR PREPARATION OF PRIMARY AMINE COMPOUNDS” (Max-Planck-Gesellschaft zur Förderung der Wissenschaften …, priority 2018, published 2022).

Tests used:
[1] = aqueous solution, hydrolyzes to oxaloacetate; calculated from data of Mortarino et al., 1996; cited from earlier work
[2] = target: the molecule itself; assay: X-ray crystal structure, self-association (homodimer)
[3] = ISRed enzyme assay coupled with BHAD, NADH oxidation followed at 340 nm; assay type: biochemical, Paracoccus denitrificans DSM 413
Description: The enzyme assay to generate aspartate from β-hydroxyaspartate (catalyzed by the BHAD and ISRed enzymes) was performed at 30° C. in a total volume of 300 μl. The reaction mixture contained 100 mM potassium phosphate pH 7.5, 1 mM BHA, 0.2 mM NADH, 0.57, 2.85, 5.7 or 11.4 μg BHAD enzyme and 0.57 μg ISRed enzyme. The oxidation of NADH was followed at 340 nm on a Cary 60 UV-Vis photospectrometer (Agilent) in quartz cuvettes with a pathlength of 10 mm (Hellma Analytics). BHA (=(2R,3S)-β-hydroxyaspartate) was custom-synthesized by the company NewChem (Newcastle upon Tyne, United Kingdom), and was determined to be >95% pure by NMR analysis.
The enzyme assay to determine the initial reaction velocity of the ISRed enzymes was performed by incubating BHA and the required cofactor NADH together with a fixed amount of the ISRed enzyme and varying amounts of the BHAD enzyme. The initial velocity depends on the amount of the BHAD enzyme present in the reaction mixture, and therefore on the amount of iminosuccinate that is produced by the BHAD enzyme and is available to the ISRed enzyme, as illustrated in FIG. 6. The initial reaction velocity of the ISRed enzyme approaches a maximum in a Michaelis-Menten kinetic fit. The preliminary vmax of the ISRed enzyme determined by this method is 270±10 U mg^−1.

Molecule: N=C(CC(=O)O)C(=O)O [iminosuccinate]
- t1/2 [1]: 1.48 s

B1: iminosuccinate reductase from Paracoccus denitrificans DSM 413 (enzyme)
chain: MLVVAEKEIAGLMTPEAAFEAIEAVFASMARRKAYNFPVVREAIGHEDALYGFKGGFDASALVLGLKAGGYWPNNQKHNLINHQSTVFLFDPDTGRVSAAVGGNLLTALRTAAASAVSIKYLAPKGAKVLGMIGAGHQSAFQMRAAANVHRFEKVIGWNPHPEMLSRLADTAAELGLPFEAVELDRLGAEADVIVSITSSFSPLLMNEHVKGPTHIAAMGTDTKGKQELDPALVARARIFTDEVAQSVSIGECQHAIAAGLIREDQVGELGAVVAGDDPGRGDAEVTIFDGTGVGLQDLAVAQAVVELAKHKGVAQEVEI
notes: Recombinant enzyme expressed in E. coli BL21 AI from pET16b and purified on Ni-NTA; It was crystallised, soaked with NAD+, and is described as a homodimer (PDB ID 6QKH); also called ISRed; IRed; not shown: N-terminal His tag and Factor Xa site from vector pET16b
- binding result [2]: binds

B2: ISRed: imine reductase enzyme from Paracoccus denitrificans DSM 413, amino acid sequence SEQ ID NO: 434, expressed in E. coli (protein)
chain: B1 chain
modifications: Paracoccus denitrificans DSM 413
- reaction catalyzed ([3]; 1 mM BHA, 0.2 mM NADH, BHAD and ISRed enzymes, 30° C., potassium phosphate pH 7.5): catalyzes the conversion of iminosuccinate into L-aspartate
- vmax ([3]; iminosuccinate synthesized in situ from BHA with varying amounts of BHAD enzyme, cofactor NADH, Michaelis-Menten fit, preliminary, n=1): 270±10 U mg^−1
